Here are results for six sequences from patent US20240376151A1, “STAPLED PEPTIDES AND METHODS THEREOF” (FOG PHARMACEUTICALS, INC., priority 2022, published 2024).

This experiment addresses T1, beta-catenin (Homo sapiens, UniProt P35222).
T1 construct: made in house; host or cells: E. coli BL21 (DE3) pLysS
T1 sequence (P35222 134-665): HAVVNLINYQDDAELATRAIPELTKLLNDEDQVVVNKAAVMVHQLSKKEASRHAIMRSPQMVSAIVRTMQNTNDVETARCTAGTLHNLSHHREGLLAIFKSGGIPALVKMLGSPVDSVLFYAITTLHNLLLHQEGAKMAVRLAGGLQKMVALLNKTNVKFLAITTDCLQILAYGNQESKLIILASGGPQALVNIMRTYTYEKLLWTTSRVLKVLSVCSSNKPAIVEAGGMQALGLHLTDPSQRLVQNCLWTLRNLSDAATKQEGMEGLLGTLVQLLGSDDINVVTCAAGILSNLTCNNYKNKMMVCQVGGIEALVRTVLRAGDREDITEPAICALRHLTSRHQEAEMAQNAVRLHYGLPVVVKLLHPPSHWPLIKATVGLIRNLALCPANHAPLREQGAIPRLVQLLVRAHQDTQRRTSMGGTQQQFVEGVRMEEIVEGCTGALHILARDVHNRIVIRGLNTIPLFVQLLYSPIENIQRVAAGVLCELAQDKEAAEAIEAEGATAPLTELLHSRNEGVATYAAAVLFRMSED
Briefly: Phage Library Screening with NGS, beta-catenin. The experiment is classed as binding. The note with it: for Target Concentration 10 (phage screen NGS readout): beta-catenin target concentration 10; for Target Concentration 10 (phage screen NGS readout) / Target Concentration 30 (phage screen NGS readout) / Target Concentration 100 (phage screen NGS readout) / Target Concentration 300 (phage screen NGS readout): no competitor; for Target Concentration 30 (phage screen NGS readout): beta-catenin target concentration 30; for Target Concentration 100 (phage screen NGS readout): beta-catenin target concentration 100; for Target Concentration 300 (phage screen NGS readout): beta-catenin target concentration 300; for Target Concentration 1000 (phage screen NGS readout): beta-catenin target concentration 1000.

For DPADWICEHAALTCQEF, the “Target Concentration 10 (phage screen NGS readout)” value stood at 0, the “Target Concentration 30 (phage screen NGS readout)” value amounted to 2, the “Target Concentration 100 (phage screen NGS readout)” value stood at 6 and the “Target Concentration 300 (phage screen NGS readout)” value is on record as 15. The “Target Concentration BLANK (phage screen NGS readout)” value (from here on “Target Concentration BLANK”) (first column) is reported as 0. For the same sequence, the “Target Concentration BLANK” value (fourth column) was found to be 0. In addition, the “Target Concentration BLANK” value (second column) is listed as 1. Moreover, the “Target Concentration BLANK” value (third column) is listed as 0. The “Target Concentration 1000 (phage screen NGS readout)” value (first 1000 column) was 12. Moreover, the “Target Concentration 1000 (phage screen NGS readout)” value (second 1000 column) is 14.
For the sequence DPAVMACYEAAFQCAYW, the “Target Concentration 10 (phage screen NGS readout)” value was 0, the “Target Concentration 30 (phage screen NGS readout)” value turned out to be 0, the “Target Concentration 100 (phage screen NGS readout)” value stood at 0 and the “Target Concentration 300 (phage screen NGS readout)” value was found to be 4. Further, the “Target Concentration BLANK” value (first column) was found to be 0. Also, the “Target Concentration BLANK” value (fourth column) is on record as 0. The “Target Concentration BLANK” value (second column) came to 0. Further, the “Target Concentration BLANK” value (third column) stood at 1. Further, the “Target Concentration 1000 (phage screen NGS readout)” value (first 1000 column) came out at 12. Also, the “Target Concentration 1000 (phage screen NGS readout)” value (second 1000 column) was determined as 0.
Turning to DPAIIHCYQAAFQCQYM, the “Target Concentration 10 (phage screen NGS readout)” value is listed as 0, the “Target Concentration 30 (phage screen NGS readout)” value was determined as 0, the “Target Concentration 100 (phage screen NGS readout)” value turned out to be 0 and the “Target Concentration 300 (phage screen NGS readout)” value was 0. Besides, the “Target Concentration BLANK” value (first column) stood at 0. Where the note is “fourth column”, the “Target Concentration BLANK” value is 0. For the same sequence, the “Target Concentration BLANK” value (second column) was found to be 0. Moreover, the “Target Concentration BLANK” value (third column) came out at 0. Also, the “Target Concentration 1000 (phage screen NGS readout)” value (first 1000 column) amounted to 7. Further, the “Target Concentration 1000 (phage screen NGS readout)” value (second 1000 column) amounted to 0.
For the sequence DPAILTCYEAAFTCQYQ, the “Target Concentration 10 (phage screen NGS readout)” value came to 0, the “Target Concentration 30 (phage screen NGS readout)” value stood at 7, the “Target Concentration 100 (phage screen NGS readout)” value was determined as 18 and the “Target Concentration 300 (phage screen NGS readout)” value is on record as 71. Further, the “Target Concentration BLANK” value (first column) is 0. Also, the “Target Concentration BLANK” value (fourth column) was 0. Further, under “second column”, the “Target Concentration BLANK” value stood at 1. In addition, the “Target Concentration BLANK” value (third column) was 0. Moreover, the “Target Concentration 1000 (phage screen NGS readout)” value (first 1000 column) worked out at 69. Besides, the “Target Concentration 1000 (phage screen NGS readout)” value (second 1000 column) is reported as 105.
On to DPAIADCDWAAEHCDLL, for which the “Target Concentration 10 (phage screen NGS readout)” value stood at 0, the “Target Concentration 30 (phage screen NGS readout)” value is reported as 6, the “Target Concentration 100 (phage screen NGS readout)” value amounted to 118 and the “Target Concentration 300 (phage screen NGS readout)” value amounted to 266. Moreover, the “Target Concentration BLANK” value (first column) is reported as 0. Also, where the note is “fourth column”, the “Target Concentration BLANK” value came out at 1. Besides, under “second column”, the “Target Concentration BLANK” value was found to be 1. In addition, the “Target Concentration BLANK” value (third column) is reported as 4. Moreover, the “Target Concentration 1000 (phage screen NGS readout)” value (first 1000 column) was 325. The “Target Concentration 1000 (phage screen NGS readout)” value (second 1000 column) turned out to be 417.
With DPAENTCSWAAEHCALV, the “Target Concentration 10 (phage screen NGS readout)” value is listed as 0, the “Target Concentration 30 (phage screen NGS readout)” value is reported as 0, the “Target Concentration 100 (phage screen NGS readout)” value was found to be 0 and the “Target Concentration 300 (phage screen NGS readout)” value was 26. For the same sequence, the “Target Concentration BLANK” value (first column) came out at 0. For the same sequence, under “fourth column”, the “Target Concentration BLANK” value was 0. Under “second column”, the “Target Concentration BLANK” value was found to be 0. For the setting “third column”, the “Target Concentration BLANK” value stood at 0. The “Target Concentration 1000 (phage screen NGS readout)” value (first 1000 column) was 28. Further, the “Target Concentration 1000 (phage screen NGS readout)” value (second 1000 column) came to 31.
